First the molecules themselves.
B1: Cryptochrome-2 (Mus musculus), Q9R194 (parent)
chain: MAAAAVVAATVPAQSMGADGASSVHWFRKGLRLHDNPALLAAVRGARCVRCVYILDPWFAASSSVGINRWRFLLQSLEDLDTSLRKLNSRLFVVRGQPADVFPRLFKEWGVTRLTFEYDSEPFGKERDAAIMKMAKEAGVEVVTENSHTLYDLDRIIELNGQKPPLTYKRFQALISRMELPKKPAVAVSSQQMESCRAEIQENHDDTYGVPSLEELGFPTEGLGPAVWQGGETEALARLDKHLERKAWVANYERPRMNANSLLASPTGLSPYLRFGCLSCRLFYYRLWDLYKKVKRNSTPPLSLFGQLLWREFFYTAATNNPRFDRMEGNPICIQIPWDRNPEALAKWAEGKTGFPWIDAIMTQLRQEGWIHHLARHAVACFLTRGDLWVSWESGVRVFDELLLDADFSVNAGSWMWLSCSAFFQQFFHCYCPVGFGRRTDPSGDYIRRYLPKLKGFPSRYIYEPWNAPESVQKAAKCIIGVDYPRPIVNHAETSRLNIERMKQIYQQLSRYRGLCLLASVPSCVEDLSHPVAEPGSSQAGSISNTGPRALSSGPASPKRKLEAAEEPPGEELTKRARVTEMPTQEPASKDS
B2: F-box/LRR-repeat protein 3 (Homo sapiens), Q9UKT7 (parent)
chain: MKRGGRDSDRNSSEEGTAEKSKKLRTTNEHSQTCDWGNLLQDIILQVFKYLPLLDRAHASQVCRNWNQVFHMPDLWRCFEFELNQPATSYLKATHPELIKQIIKRHSNHLQYVSFKVDSSKESAEAACDILSQLVNCSLKTLGLISTARPSFMDLPKSHFISALTVVFVNSKSLSSLKIDDTPVDDPSLKVLVANNSDTLKLLKMSSCPHVSPAGILCVADQCHGLRELALNYHLLSDELLLALSSEKHVRLEHLRIDVVSENPGQTHFHTIQKSSWDAFIRHSPKVNLVMYFFLYEEEFDPFFRYEIPATHLYFGRSVSKDVLGRVGMTCPRLVELVVCANGLRPLDEELIRIAERCKNLSAIGLGECEVSCSAFVEFVKMCGGRLSQLSIMEEVLIPDQKYSLEQIHWEVSKHLGRVWFPDMMPTW
partner: B1 chain

The first assay covers variants of B1. The settings on record: with per1_human PER1, O15534.
per1_human PER1, O15534, sequence (O15534 whole entry): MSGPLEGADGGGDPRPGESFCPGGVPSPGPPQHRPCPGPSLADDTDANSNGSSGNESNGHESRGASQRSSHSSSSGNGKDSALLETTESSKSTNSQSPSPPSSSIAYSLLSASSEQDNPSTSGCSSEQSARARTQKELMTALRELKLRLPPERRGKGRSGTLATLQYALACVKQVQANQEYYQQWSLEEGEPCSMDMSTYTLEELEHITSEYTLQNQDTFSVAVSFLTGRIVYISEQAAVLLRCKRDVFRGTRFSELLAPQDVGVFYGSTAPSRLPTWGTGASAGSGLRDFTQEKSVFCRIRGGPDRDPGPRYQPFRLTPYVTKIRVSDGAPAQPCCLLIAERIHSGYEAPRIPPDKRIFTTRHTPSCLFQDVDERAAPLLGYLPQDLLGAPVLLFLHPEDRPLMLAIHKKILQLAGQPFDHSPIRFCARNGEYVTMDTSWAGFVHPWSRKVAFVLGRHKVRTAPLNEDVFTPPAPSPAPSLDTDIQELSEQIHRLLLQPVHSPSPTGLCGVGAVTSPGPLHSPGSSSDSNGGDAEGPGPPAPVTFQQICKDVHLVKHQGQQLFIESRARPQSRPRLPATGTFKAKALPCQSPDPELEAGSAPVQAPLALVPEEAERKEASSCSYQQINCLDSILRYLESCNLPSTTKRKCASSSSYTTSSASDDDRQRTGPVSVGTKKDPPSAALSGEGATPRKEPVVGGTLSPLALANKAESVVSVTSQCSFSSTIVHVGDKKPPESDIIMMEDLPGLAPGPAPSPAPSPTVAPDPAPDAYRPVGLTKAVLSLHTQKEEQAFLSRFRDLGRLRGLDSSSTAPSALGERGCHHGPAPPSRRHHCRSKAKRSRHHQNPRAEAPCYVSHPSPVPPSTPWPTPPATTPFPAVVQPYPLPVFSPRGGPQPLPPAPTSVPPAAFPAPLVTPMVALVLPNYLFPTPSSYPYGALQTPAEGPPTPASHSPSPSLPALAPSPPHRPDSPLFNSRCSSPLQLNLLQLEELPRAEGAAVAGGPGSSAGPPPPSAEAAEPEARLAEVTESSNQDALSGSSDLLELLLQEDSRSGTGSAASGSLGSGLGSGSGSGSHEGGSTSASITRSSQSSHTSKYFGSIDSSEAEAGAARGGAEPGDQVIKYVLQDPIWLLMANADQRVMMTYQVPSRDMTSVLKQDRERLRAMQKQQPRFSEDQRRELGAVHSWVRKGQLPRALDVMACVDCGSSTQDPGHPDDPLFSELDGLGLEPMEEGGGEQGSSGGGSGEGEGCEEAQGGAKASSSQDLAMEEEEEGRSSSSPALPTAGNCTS
Consider D339R, for which the “effect of a mutation on the interaction” value is given as “disrupting interaction strength”.

In a further assay the parent is B2. The note with it: with cry2_mouse Cry2, Q9R194.
For the variant Y314A, the “effect of a mutation on the interaction” value is listed as “disrupting interaction strength”.
For W428A, the “effect of a mutation on the interaction” value is “decreasing interaction strength”.
Same read-out and setting: to Y292A belongs “decreasing interaction strength”; to P426A, “disrupting interaction strength”; to E336A, “disrupting interaction strength”.

For the origin of these results see IntAct's records for PubMed 23503662.
